We go through five molecules from patent US20190248902A1 (published 2019).

In experiment [1] the target is T1, human ASGR-1 carbohydrate binding domain (CBD) (148-291) (human, UniProt P07306 148-291).
T1 construct: also called ASGR-1 CBD; ASGR-1 CRD
T1 sequence: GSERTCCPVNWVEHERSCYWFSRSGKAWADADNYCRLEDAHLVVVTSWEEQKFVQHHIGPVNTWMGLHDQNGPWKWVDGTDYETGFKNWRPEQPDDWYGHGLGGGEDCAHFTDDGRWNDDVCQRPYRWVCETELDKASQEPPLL
The experiment can be described thus: X-ray crystal structure of the complex, 2.6 A. The text has this:
2. The dataset was collected from a single crystal on beamline ID22 at the Argonne National Laboratory and processed with XDS/CCP4;
4. The 194C10 Fab/ASGR-1 CBD complex structure was solved by molecular replacement with the program Phaser; and […]

The target in experiment [2] is T1, human ASGR-1 carbohydrate binding …. Put plainly: X-ray crystal structure of the complex, 2.1 A.
The target is the same in experiment [3]. The experiment can be described thus: X-ray crystal structure, legend of FIG. 25.
For the next experiment, the target named is T2, Soluble ASGR-1 (human, UniProt P07306 62-291, biotinylated).
T2 construct: Soluble recombinant protein; also called recombinant, soluble ASGR-1 biotinylated protein
T2 sequence: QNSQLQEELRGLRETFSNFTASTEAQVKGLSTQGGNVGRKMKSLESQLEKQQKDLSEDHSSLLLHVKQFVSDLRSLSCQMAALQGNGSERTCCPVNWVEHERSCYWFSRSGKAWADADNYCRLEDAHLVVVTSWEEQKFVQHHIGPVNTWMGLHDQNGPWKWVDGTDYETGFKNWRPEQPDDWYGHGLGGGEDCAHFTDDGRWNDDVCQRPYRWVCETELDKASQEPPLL
The experiment can be described thus: limited antigen binding assay; biotinylated soluble ASGR-1 coated at 2.5 ng/mL on LumAvidin beads, FACS. Here is the method: To assess antibody and antigen interaction strength (relative binding affinity), ASGR-1 specific, ligand competing antibody hybridoma supernatants were tested in a limiting antigen binding assay. Titrated amounts of recombinant, soluble ASGR-1 biotinylated protein was incubated with streptavidin-coated LumAvidin Beads® for 45 minutes in the dark at room temperature and washed twice. Beads were resuspeneded in FACS buffer containing Stabilguard® and 0.05% Sodium Azide. Antigen-bound beads were then incubated with normalized hybridoma supernatant sample or controls for 18 hours in the dark at room temperature, washed twice, incubated with Alexa Fluor® 488 IgG fragment-specific detection antibody for 15 minutes in the dark at room temperature, washed once and finally resuspended in FACS buffer. Samples were analyzed using an Intellicyt iQue™ Screener Platform. FACS buffer supplemented with 1 mM Calcium Chloride was used in all steps. […] In this assay method, the antibody binding signal correlates with antibody affinity. Antibody binding data for a representative antigen coating concentration that fell in the linear range of the instrument signal detection is shown in Table 7.2. The degree of antibody binding to the target (ASGR-1) correlates with the measured fluorescent intensity and thus allows a relative comparison of affinities across the panel.

Another experiment concerns the target T3, Mouse ASGR-1 (mouse, UniProt P34927 1-284).
T3 construct: Expressed on HEK 293 cells or as membrane prep on beads; cDNA GenBank BC022106.1; also called muASGR-1; mASGR-1
T3 sequence: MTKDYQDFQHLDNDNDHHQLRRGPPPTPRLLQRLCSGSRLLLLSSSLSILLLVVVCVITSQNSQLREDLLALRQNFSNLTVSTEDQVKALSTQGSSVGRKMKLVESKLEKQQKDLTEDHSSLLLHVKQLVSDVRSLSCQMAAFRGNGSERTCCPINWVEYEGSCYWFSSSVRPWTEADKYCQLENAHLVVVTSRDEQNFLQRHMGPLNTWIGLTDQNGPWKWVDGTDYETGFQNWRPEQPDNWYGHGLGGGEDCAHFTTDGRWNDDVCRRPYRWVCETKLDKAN
The experiment can be described thus: FACS on transfected HEK 293 cells or membrane preps on beads; binding = signal at least 2x irrelevant IgG. The procedure:
(§1) Human ASGR-1-specific, ligand competing antibody samples were tested for binding to ASGR-1 from other species (cynomologus monkey ASGR-1, mouse ASGR-1, rat ASGR-1, dog ASGR-1, and pig ASGR-1) as well as to human ASGR-2 in FACS binding assays at normalized antibody concentrations. For cell-based assays, HEK 293 cells expressing the appropriate antigen of interest were mixed with antibody sample or controls, incubated for 1 hour at 4° C., and then washed twice. Cells with bound antibody were then incubated with Alexa Fluor® 647 IgG Fc fragment-specific detection antibody and 7-AAD viability stain for 15 minutes at 4° C., washed once and resuspended in FACS buffer. Samples were analyzed using a BD Accuri™ Flow Cytometer and an Intellicyt HyperCyt Autosampler. As a negative control, supernatants and controls were also screened against HEK 293 cells transfected with empty parental vector. […] For membrane-prep binding assays, ASGR-1 species specific membrane preps were used to coat LumAvidin® microspheres (beads) and tested for binding to selected hybridoma supernatants or controls. Briefly, ASGR-1 species specific membrane preps were incubated with streptavidin-coated LumAvidin® beads for 45 minutes in the dark at room temperature and washed twice. Beads were resuspeneded in FACS buffer containing Stabilguard®. Antigen-bound beads were then incubated with normalized antibody sample for 1 hour in the dark at room temperature, washed twice, incubated with Alexa Fluor® 488 IgG Fc fragment-specific detection antibody for 15 minutes in the dark at room temperature, washed once and finally resuspended in FACS buffer. Samples were analyzed using an Intellicyt iQue™ Screener Platform. FACS buffer supplemented with 1 mM Calcium Chloride was used in all steps. As a negative control, supernatants and controls were also screened against a non-ASGR-1 antigen membrane prep coated on the LumAvidin® beads.

The target of the next experiment is T4, Dog ASGR-1 (dog).
T4 construct: Expressed on HEK 293 cells or as membrane prep on beads; cDNA GenBank XM_546579
T4 chain: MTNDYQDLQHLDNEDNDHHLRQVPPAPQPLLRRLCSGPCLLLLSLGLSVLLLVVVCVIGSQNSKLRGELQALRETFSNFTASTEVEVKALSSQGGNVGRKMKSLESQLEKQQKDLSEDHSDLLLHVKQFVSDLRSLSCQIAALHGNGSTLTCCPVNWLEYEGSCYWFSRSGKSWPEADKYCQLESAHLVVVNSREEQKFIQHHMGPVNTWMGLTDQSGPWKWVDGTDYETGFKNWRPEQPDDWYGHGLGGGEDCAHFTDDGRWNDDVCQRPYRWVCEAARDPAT
Put plainly: FACS on transfected HEK 293 cells or membrane preps on beads; Y = signal at least 2x irrelevant IgG. The procedure: as §1

The next experiment has as its target T5, Pig ASGR-1 (pig).
T5 construct: Expressed on HEK 293 cells or as membrane prep on beads; cDNA GenBank NM_001244458
T5 chain: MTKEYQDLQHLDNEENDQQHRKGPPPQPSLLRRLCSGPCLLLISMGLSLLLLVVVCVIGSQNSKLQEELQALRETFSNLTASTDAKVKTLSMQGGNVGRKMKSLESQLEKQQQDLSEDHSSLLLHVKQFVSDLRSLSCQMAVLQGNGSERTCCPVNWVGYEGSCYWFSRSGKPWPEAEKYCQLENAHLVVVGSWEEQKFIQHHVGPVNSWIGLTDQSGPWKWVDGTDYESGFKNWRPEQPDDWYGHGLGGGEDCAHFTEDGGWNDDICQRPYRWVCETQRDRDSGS
The experiment is described as above. The procedure:
as §1

In the next experiment the target is T6, Cyno ASGR-1 (cynomolgus monkey, UniProt P07306 1-291 (human entry)).
T6 construct: Expressed on HEK 293 cells or as membrane prep on beads; cDNA from XP_005582755; also called cynomologus monkey ASGR-1
T6 chain: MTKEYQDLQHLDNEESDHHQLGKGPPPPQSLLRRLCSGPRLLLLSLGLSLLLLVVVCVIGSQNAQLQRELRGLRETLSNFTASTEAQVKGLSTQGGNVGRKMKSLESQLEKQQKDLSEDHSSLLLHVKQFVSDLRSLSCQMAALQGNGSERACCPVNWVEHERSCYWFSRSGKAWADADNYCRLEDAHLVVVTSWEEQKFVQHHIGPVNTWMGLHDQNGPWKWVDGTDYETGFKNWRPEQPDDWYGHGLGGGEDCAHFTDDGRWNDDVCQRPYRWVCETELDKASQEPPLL
The description is as above. Here is the method:
as §1

For another experiment, the target named is T7, Human ASGR-2 (human, UniProt P07307 1-311).
T7 construct: Expressed on HEK 293 cells; cDNA GenBank NM_080913.3; also called huASGR-2; hASGR-2
T7 sequence: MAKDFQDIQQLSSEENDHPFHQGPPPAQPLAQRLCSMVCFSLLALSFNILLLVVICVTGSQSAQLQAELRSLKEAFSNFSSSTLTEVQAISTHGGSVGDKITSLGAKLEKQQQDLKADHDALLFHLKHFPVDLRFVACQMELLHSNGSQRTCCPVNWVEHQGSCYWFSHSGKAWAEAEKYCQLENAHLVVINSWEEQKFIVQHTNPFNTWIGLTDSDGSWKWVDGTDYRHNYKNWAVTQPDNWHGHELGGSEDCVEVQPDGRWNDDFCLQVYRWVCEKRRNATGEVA
The experiment can be described thus: FACS on transfected HEK 293 cells; Y = signal at least 2x irrelevant IgG. The procedure:
as §1, with “Antigen-bound beads were then incubated with normalized antibody sample for 1 hour in the dark at room temperature, washed twice, incubated with Alexa Fluor® 488 IgG Fc fragment-specific detection antibody for 15 minutes in the dark at room temperature, washed once and finally resuspended in FACS buffer.” left out, “FACS buffer supplemented with 1 mM Calcium Chloride was used in all steps. As a negative control, supernatants and controls were also screened against a non-ASGR-1 antigen membrane prep coated on the LumAvidin® beads.” left out

Experiment [4] deals with T8, human ASGR-1 (full length, expressed on cells) (human, UniProt P07306 1-291).
T8 construct: single point mutants were made in the CBD in the context of full-length ASGR-1; also called hASGR-1; huASGR-1
T8 sequence: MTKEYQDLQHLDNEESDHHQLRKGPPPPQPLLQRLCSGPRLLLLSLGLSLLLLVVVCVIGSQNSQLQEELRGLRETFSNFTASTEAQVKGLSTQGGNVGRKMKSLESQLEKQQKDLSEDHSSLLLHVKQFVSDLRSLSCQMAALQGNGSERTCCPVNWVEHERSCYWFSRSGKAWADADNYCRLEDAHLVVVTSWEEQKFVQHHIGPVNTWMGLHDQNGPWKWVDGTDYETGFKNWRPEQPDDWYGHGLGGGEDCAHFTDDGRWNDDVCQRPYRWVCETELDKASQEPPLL
The experiment can be described thus: flow cytometry; biotinylated ligand on CHO-S cells stably expressing ASGR-1, detected with streptavidin-AF647.

B1: 194C10 Fab (Fab, V domains shown)
VH: QVQLQQWGAGLLKPSETLSLTCAVSGGSFRYYYWSWIRQPPGKGLEWFGEINHAGSTNYNPSLKSRVTISIDTSKNQFSLKLRSVTAADTAVYYCARDYGAFDIWGQGTMVTVSS
VL: EIVLTQSPGTLSLSPGERATLSCRASPSVNSGYLAWYQQKPGQTPRLLIFGASSRATGIPDRFSASGSGADFTLTISRLEPEDFAVYFCQQYESSPWTFGQGTKVEIKR
notes: also called Fab fragment of 194C10
Take B1: the binding result in experiment [1] was “binds”.

B2: 22G5 Fab (Fab, V domains shown)
VH: EVQLLESGGGLVQPGGSLRLSCAASGFTFSSYAMNWVRQAPGMGLEWVSVISRSGGYTYYADSVKGRFTISRDNSKNTLYLQMNSLRAEDTAVYYCASRLAVAGSEAFDIWGQGTLVTVSS
VL: DIQMTQSPSSLSASVGDRVTITCRASQNISSYLNWYQQKQGKAPKLLIYAASSLQNGVPSRFSGRGSGTDFTLTISSLQPEDFATYYCQQSYRTPLFTFGPGTKVDFK
modifications: N-acetylglucosamine (NAG100) is listed among the light chain boundary residues
notes: Made by cleaving the 22G5-IgG4 mAb with papain; also called Fab fragment of 22G5
As to B2, in experiment [2], the binding result is reported as “binds”.

B3: 4A2 Fab (Fab, V domains shown)
VH: QVQLVQSGTEVKKPGASVKVSCKASGYTFTNYDINWVRQATGQGLEWMGWMHPNSGNTGYAQKFQGRVTLTRDTSISTAYMELSSLRSEDTAVYYCASSSGWYYFDYWGQGTLVTVSS
VL: DIVMTQSPDSLAVSLGERATINCKSSQSILHSSNNNNYLAWFQQKPGQPPKLLLYWASTRESGVPDRFSGSGSGTDFTLTISSLQPEDVAVYYCQQYYNTPVTFGPGTKVGIKR
notes: Expressed directly as a Fab, with a double stop codon at the end of the CH1 domain; also called Fab fragment of 4A2
Turning to B3, the binding result in [3] is listed as “binds”.

B4: 7F4 (antibody, V domains shown)
VH: QLQLQESGPGLVKPSETLSLTCTVSGGSISRSSYYWGWIRQPPGKGLEWIGNIYYSGATYYNPSLKSRVTISVDTSTNQFSLKLSSVTAADTAVYYCARHSGSWSLDYWGQGTLVTVSS
VL: DIQMTQSPSSLSASVGDRVTITCRTSQGIRNDLGWYQQKPGKAPKRLIYAASNLQSGVPSRFSGSGSGTEFTLTISSLQPEDFATYYCLQHSAYPLTFGGGTKVEIK
notes: Tested as hybridoma supernatant at normalized concentration
Consider B4, for which the “FACS Geomean” value in the experiment with Soluble ASGR-1 is 4910 FACS Geomean. In addition, the binding result with Mouse ASGR-1 is on record as “no binding”; with Dog ASGR-1, “binds”; with Pig ASGR-1, “binds”; with Cyno ASGR-1, “binds”; with Human ASGR-2, “binds”.

B5: desialylated, biotinylated asialofetuin (bovine fetuin, AHSG) (ligand, UniProt P12763 19-359, looked up)
chain: IPLDPVAGYKEPACDDPDTEQAALAAVDYINKHLPRGYKHTLNQIDSVKVWPRRPTGEVYDIEIDTLETTCHVLDPTPLANCSVRQQTQHAVEGDCDIHVLKQDGQFSVLFTKCDSSPDSAEDVRKLCPDCPLLAPLNDSRVVHAVEVALATFNAESNGSYLQLVEISRAQFVPLPVSVSVEFAVAATDCIAKEVVDPTKCNLLAEKQYGFCKGSVIQKALGGEDVRVTCTLFQTQPVIPQPQPDGAEAEAPSAVPDAAGPTPSAAGPPVASVVVGPSVVAVPLPLHRAHYDLRHTFSGVASVESSSGEAFHVGKTPIVGQPSIPGGPVRLCPGRIRYFKI
modifications: desialated with C. perfringens and A. ureafaciens neuraminidases; biotinylated with Innolink Biotin 354S
notes: also called bn-asialofetuin; protein ligand
B5: in experiment [4], the EC50 worked out at 10.7 nM.
